Experiment [1] deals with Y3pCNF-CpFd, ferredoxin CpFd from Clostridium pasteurianum with tyrosine Y3 replaced by 4-cyano-L-phenylalanine (holo) (Clostridium pasteurianum) (UniProt P00195). Description: MST; anaerobic; reducing conditions (dithionite); ferredoxin labelled with Alexa Fluor 647.
For experiment [2], the target named is ferredoxin PetF from Chlamydomonas reinhardtii, wild type, Alexa Fluor 647-labeled (Chlamydomonas reinhardtii) (UniProt P07839). In words: MST; labeled PetF (200 nM) titrated with unlabeled CrHydA1 (0.003–10 µM) with 2 mM dithionite under anaerobic conditions; read-out: concentration-dependent fluorescence quenching of the Alexa Fluor 647 label; 50 mM TRIS pH 8, 50 mM NaCl, 1 mM MgCl2, 0.05 mg/mL BSA, 0.05% Tween20; Monolith NT.115, 22°C.

In experiment [3] the target is clostridial 2[4Fe-4S] ferredoxin CpFd from Clostridium pasteurianum, wild type (holo) (Clostridium pasteurianum) (UniProt P00195). Description: MST; anaerobic; reducing conditions (dithionite); ferredoxin labelled with Alexa Fluor 647.
Experiment [4] concerns the target T1, [FeFe]-hydrogenase CpI from Clostridium pasteurianum (Clostridium pasteurianum, UniProt P29166 1-574).
T1 construct: [FeFe]-hydrogenase CpI of Clostridium pasteurianum, with H-domain (H-cluster) and F-domain (three [4Fe-4S] clusters, one [2Fe-2S] cluster)
T1 sequence: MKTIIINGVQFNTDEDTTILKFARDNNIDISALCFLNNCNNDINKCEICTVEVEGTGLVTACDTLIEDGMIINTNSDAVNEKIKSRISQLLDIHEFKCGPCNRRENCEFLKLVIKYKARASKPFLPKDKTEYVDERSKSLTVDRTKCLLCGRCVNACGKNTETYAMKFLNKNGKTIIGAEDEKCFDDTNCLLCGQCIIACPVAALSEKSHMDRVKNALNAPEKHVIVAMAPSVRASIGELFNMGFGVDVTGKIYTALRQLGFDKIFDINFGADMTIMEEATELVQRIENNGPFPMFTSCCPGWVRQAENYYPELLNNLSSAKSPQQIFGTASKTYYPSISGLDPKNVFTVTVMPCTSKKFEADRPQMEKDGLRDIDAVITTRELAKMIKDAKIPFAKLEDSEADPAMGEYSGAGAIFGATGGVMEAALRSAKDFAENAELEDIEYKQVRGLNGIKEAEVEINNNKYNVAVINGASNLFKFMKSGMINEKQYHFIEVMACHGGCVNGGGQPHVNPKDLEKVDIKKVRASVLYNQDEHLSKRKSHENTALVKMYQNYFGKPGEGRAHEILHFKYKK
The description is as above. To be noted: both partners purified.

Where no end group is shown, it is not given here.

For orientation: Kd means a measure of binding affinity in units of concentration.

On to “[FeFe]-hydrogenase CpI from Clostridium pasteurianum (from UniProt P29166 1-574) (enzyme)”, for which, in experiment [1], the Kd was 11.3 µM.

In the case of “[FeFe]-hydrogenase CrHydA1 from Chlamydomonas reinhardtii (enzyme)”, the values for the Kd in experiment [2] and in experiment [3] were 1.24 µM and 2.41 µM, respectively.

B1: clostridial 2[4Fe-4S] ferredoxin CpFd from Clostridium pasteurianum, wild type (holo) (natural protein)
chain: AYKIADSCVSCGACASECPVNAISQGDSIFVIDADTCIDCGNCANVCPVGAPVQE
modifications: cysteine pairing not given here; also: Alexa Fluor 647 dye label, site not given here, binds two [4Fe-4S] clusters (F and F')
notes: Ferredoxin CpFd of Clostridium pasteurianum, 2[4Fe-4S] type, wild type; Tested reduced (with dithionite) and oxidized (without dithionite); the redox state is told by the assay; also called wild-type CpFd; holo-CpFd; source: E. coli C321.ΔA.opt
In experiment [4], B1 yielded an equilibrium dissociation constant (Kd) of 12.4 ± 0.97 µM.

The record behind these values is PMC12067460, “Probing the ferredoxin:hydrogenase electron transfer complex by infrared difference spectroscopy†” (Chemical Science, 2025).
